From paper PMC9640623, “SAMHD1 deacetylation by SIRT1 promotes DNA end resection by facilitating DNA binding at double-strand breaks” (Nature Communications, 2021) come the findings set out here.

The target in this assay is T1, 6xHis-SAMHD1 wild-type (full-length, recombinant) (human, UniProt Q9Y3Z3 1-626).
T1 construct: SAMHD1, full-length, from pET14b-6xHis-SAMHD1 (gift from Dr. Baek Kim); with N-terminal His tag and linker region, calculated molecular weight 74 kDa; Tetramer only stated after preincubation with dGTP; also called recombinant SAMHD1; SAMHD1 WT protein; source: E. coli BL21 Rosetta, purified (His-Trap, Superdex 200 SEC); not shown: His6, N-terminal, kept
The assay is described as follows: pull-down; GST-SIRT1 (193-741) pre-incubated with glutathione-agarose beads in 50 mM Tris-Cl pH 8, 150 mM NaCl, protease inhibitors, 1 h at 4 °C; recombinant SAMHD1 added for 2 h at 4 °C; blots with anti-SAMHD1 or anti-GST. The following applies: both partners purified.

T1 sequence (Q9Y3Z3 whole entry): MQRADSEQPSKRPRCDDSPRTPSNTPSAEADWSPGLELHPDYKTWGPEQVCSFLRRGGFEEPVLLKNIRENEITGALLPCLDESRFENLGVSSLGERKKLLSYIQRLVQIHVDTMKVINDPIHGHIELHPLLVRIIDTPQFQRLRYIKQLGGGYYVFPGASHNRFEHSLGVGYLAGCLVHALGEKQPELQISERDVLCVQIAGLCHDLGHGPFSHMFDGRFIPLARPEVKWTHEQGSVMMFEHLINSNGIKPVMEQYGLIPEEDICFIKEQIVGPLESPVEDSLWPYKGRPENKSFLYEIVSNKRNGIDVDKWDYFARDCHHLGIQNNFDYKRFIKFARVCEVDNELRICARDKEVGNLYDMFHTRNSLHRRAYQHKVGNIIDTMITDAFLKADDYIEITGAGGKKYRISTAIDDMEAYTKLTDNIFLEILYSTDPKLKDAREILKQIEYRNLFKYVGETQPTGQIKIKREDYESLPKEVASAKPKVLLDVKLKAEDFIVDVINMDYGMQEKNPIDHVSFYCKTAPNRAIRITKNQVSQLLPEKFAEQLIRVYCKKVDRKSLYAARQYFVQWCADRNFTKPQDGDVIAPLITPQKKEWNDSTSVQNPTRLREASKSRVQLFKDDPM

B1: GST-SIRT1 (containing amino acids 193-741 of SIRT1) (domain or fragment, UniProt Q96EB6 193-741, looked up)
chain: MIGTDPRTILKDLLPETIPPPELDDMTLWQIVINILSEPPKRKKRKDINTIEDAVKLLQECKKIIVLTGAGVSVSCGIPDFRSRDGIYARLAVDFPDLPDPQAMFDIEYFRKDPRPFFKFAKEIYPGQFQPSLCHKFIALSDKEGKLLRNYTQNIDTLEQVAGIQRIIQCHGSFATASCLICKYKVDCEAVRGDIFNQVVPRCPRCPADEPLAIMKPEIVFFGENLPEQFHRAMKYDKDEVDLLIVIGSSLKVRPVALIPSSIPHEVPQILINREPLPHLHFDVELLGDCDVIINELCHRLGGEYAKLCCNPVKLSEITEKPPRTQKELAYLSELPPTPLHVSEDSSSPERTSPPDSSVIVTLLDQAAKSNDDLDVSESKGCMEEKPQEVQTSRNVESIAEQMENPDLKNVGSSTGEKNERTSVAGTVRKCWPNRVAKEQISRRLDGNQYLFLPPNRYIFHGAEVYSDSEDDVLSSSSCGSNSDSGTCQSPSLEEPMEDESEIEEFYNGLEDEPDVPERAGGAGFGTDGDDQEAINEAISVKQEVTDMN
notes: SIRT1 amino acids 193-741, recombinant, lacking N-terminal amino acids 1-192; The results call it bacterially-purified; also called GST-SIRT1 (lacking N-terminal amino acids 1–192); source: bought: Active Motif # 31533
For B1, the binding result is listed as “binds”.
